Assay [1] concerns the target T1, VCY; VCY-37 peptide peptide on HLA-A*02:01 (human).
T1 peptide: KVAEKGEAV
Put plainly: multimer staining.

Assay [2] deals with T2, HLA-A2 on T2 cells (human).
T2 construct: The text of the assay says only 'HLA-A2'; also called HLA-A2 allele
Put plainly: HLA-A2 stabilisation on T2 cells, 18 hr, flow cytometry, fluorescence index. The procedure:
The predicted peptides were synthesized and co-cultured with T2 cells with a series of diluted concentrations. DMSO without peptide or with the same concentration of negative binding to HLA-A2 peptide were used as control. After 18 hr incubation, the HLA-A2 expression was detected by flow cytometer. The fluorescence index (FI) was calculated as follows: FI=(mean fluorescence with the given peptide−mean fluorescence without peptide)/(mean fluorescence without peptide). […] The VCX54 epitope is found in all members of the VCX/Y family including VCX1, VCX2, VCX3A, VCX3B, or VCY which are expressed in various lung cancer cells (FIG. 1B).

The target in assay [3] is T2, HLA-A2 on T2 cells. Put plainly: HLA-A2 stabilisation on T2 cells, 18 hours, flow cytometry, FI index. The protocol: The peptides were synthesized and pulsed with T2 cells with a series of diluted concentrations for 18 hours. After incubation, the HLA-A2 expression level of T2 was detected by flow cytometry and the FI index was calculated. The M27 peptide was used as a weak binding peptide control and the M26 peptide was used as a strong binding peptide control.

In assay [4] the target is T3, VCX/Y family (VCX1, VCX2, VCX3A, VCX3B, VCY); VCX54 peptide peptide on HLA-A*02:01 (human).
T3 peptide: GAATKMAAV
Nature of the assay: multimer staining.

B1: VCY-37 CTL TCR (TCR, V domains shown)
Valpha: AQKVTQAQTEISVVEKEDVTLDCVYETRDTTYYLFWYKQPPSGELVFLIRRNSFDEQNEISGRYSWNFQKSTSSFNFTITASQVVDSAVYFCALSLLSYNTDKLIFGTGTRLQVFP
Vbeta: DTGVSQDPRHKITKRGQNVTFRCDPISEHNRLYWYRQTLGQGPEFLTYFQNEAQLEKSRLLSDRFSAERPKGSFSTLEIQRTEQGDSAMYLCASSTPGPSGANVLTFGAGSRLTVL
As for B1, the binding result in assay [1] is on record as “recognises”.

B2: VCX54 peptide (GAATKMAAV) (peptide)
peptide: GAATKMAAV
notes: Synthetic 9-mer shared by all VCX/Y family members; added to T2 cells in the HLA-A2 stabilisation assay; also called GAATKMAAV (54)
Turning to B2, the binding result with HLA-A2 on T2 cells [2] is recorded as “binds”.

For the molecule KMAAVEAPEA (Synthetic 10-mer) [VCX-58 peptide (KMAAVEAPEA)], in the assay with HLA-A2 on T2 cells [3], the binding result is given as “binds”.

For the molecule KVAEKGEAV (Synthetic 9-mer from VCY) [VCY-37 peptide (KVAEKGEAV)], in the assay with HLA-A2 on T2 cells [3], the binding result is given as “binds”.

B3: VCX54 CTL Clone-7 TCR (TCR, V domains shown)
Valpha: AQKITQTQPGMFVQEKEAVTLDCTYDTSDPSYGLFWYKQPSSGEMIFLIYQGSYDQQNATEGRYSLNFQKARKSANLVISASQLGDSAMYFCAMITSGNTGKLIFGQGTTLQVKP
Vbeta: AAGVIQSPRHLIKEKRETATLKCYPIPRHDTVYWYQQGPGQDPQFLISFYEKMQSDKGSIPDRFSAQQFSDYHSELNMSSLELGDSALYFCASSPPGGGRTEAFFGQGTRLTVV
In the case of B3, the binding result in assay [4] was “recognises”.

The values above are taken from US20200147161A1 (University of Texas, published 2020).
